Results published in PMC6868437.
Values belong to the molecule of their own block, whether it stands above or below them.

How the values were obtained:
Test in all cases: pull-down
[1] = target: GST-Rps3, wt (yeast (S. cerevisiae)) (UniProt P05750)
[2] = target: rps3-R116D fused to GST (yeast (S. cerevisiae)) (UniProt P05750)
[3] = target: GST-a/tif32-CTD-box33 (yeast (S. cerevisiae)) (UniProt P38249)
[4] = target: GST-a/tif32-CTD-box32 (yeast (S. cerevisiae)) (UniProt P38249)

- reduction of binding against wt full-length a/Tif32 [1]: 50%
- reduction of binding against GST-Rps3 wt [2]: 35%
- reduction of binding against wt full-length a/Tif32 [2]: 50%
Molecule: [35S]-labelled full-length a/Tif32 with box32 (from UniProt P38249 1-964) (natural protein)

- reduction of binding against the wt a/Tif32-CTD [3]: 80%
- reduction of binding against the wt a/Tif32-CTD [4]: 80%
B1: [35S]-labelled uS3/Rps3, wt (natural protein)
chain: MVALISKKRKLVADGVFYAELNEFFTRELAEEGYSGVEVRVTPTKTEVIIRATRTQDVLGENGRRINELTLLVQKRFKYAPGTIVLYAERVQDRGLSAVAQAESMKFKLLNGLAIRRAAYGVVRYVMESGAKGCEVVVSGKLRAARAKAMKFADGFLIHSGQPVNDFIDTATRHVLMRQGVLGIKVKIMRDPAKSRTGPKALPDAVTIIEPKEEEPILAPSVKDYRPAEETEAQAEPVEA
modifications: [35S]-labelled
